Assay results taken from article PMC6764986.

Target: ALFA-tagged target immobilized for SPR (TST-NEDD8-ALFA or GFP-ALFA)
Experiment: SPR; ALFA-tagged ligand (TST-NEDD8-ALFA or GFP-ALFA) coupled by EDC-NHS to HC1000m chip; NbALFA as analyte; 20 °C, 40 µL/min, PBS with 0.002% Tween-20 pH 7.4; dissociation followed for > 7 h

B1: NbALFA (non-tagged) (VHH)
VHH: EVQLQESGGGLVQPGGSLRLSCTASGVTISALNAMAMGWYRQAPGERRVMVAAVSERGNAMYRESVQGRFTVTRDFTNKMVSLQMDNLKPEDTAVYYCHVLEDRVDSFHDYWGQGTQVTVSS
  Kd: 26 pM
